Laboratory results published in patent US6872803 (Kyowa Kirin, dated 2005).
[ ]: non-standard residue; d: D form.

T1: Bovine lung-derived ANP receptor (bovine)
T1 chain: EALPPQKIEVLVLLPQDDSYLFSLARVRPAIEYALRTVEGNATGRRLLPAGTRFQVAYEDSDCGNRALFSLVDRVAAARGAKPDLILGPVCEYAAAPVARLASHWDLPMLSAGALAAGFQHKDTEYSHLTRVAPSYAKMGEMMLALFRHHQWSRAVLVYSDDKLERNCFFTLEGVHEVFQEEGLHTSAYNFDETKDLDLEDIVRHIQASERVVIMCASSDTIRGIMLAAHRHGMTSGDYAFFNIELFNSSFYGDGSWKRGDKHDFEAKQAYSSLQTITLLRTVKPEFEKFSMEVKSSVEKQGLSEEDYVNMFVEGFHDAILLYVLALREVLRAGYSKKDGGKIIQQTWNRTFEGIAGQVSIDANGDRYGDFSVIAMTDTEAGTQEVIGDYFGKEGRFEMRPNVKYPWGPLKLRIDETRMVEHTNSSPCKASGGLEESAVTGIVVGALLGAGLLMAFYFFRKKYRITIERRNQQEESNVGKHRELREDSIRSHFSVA


How the values were obtained:
[1] = molecular target: T1, Bovine lung-derived ANP receptor; test: displacement of 125I-rat ANP from bovine lung membrane fraction, filter binding
[2] = molecular target: T2, protein-farnesyltransferase derived from bovine brains (bovine, UniProt P29702 2-375; P49355 1-437); test: cell-based or functional assay
[3] = molecular target: T2, protein-farnesyltransferase derived …; test: cell-based or functional assay; remark: listed apart in the source

Binder | IC50 [1] [µM] | IC50 (µM), transfer of [3H]-farnesyl diphosphate to Ras protein (v-Ki-Ras p21) [2] [µM] | IC50 (µM), intake of [3H]-farnesyl diphosphate by biotin-lamin-B peptide (SPA enzyme assay kit) [3] [µM]
H-FGG[dR]IDRI-NH2 (SMILES CC[C@H](C)[C@H](NC(=O)[C@H](CCCNC(=N)N)NC(=O)[C@H](CC(=O)O)NC(=O)[C@@H](NC(=O)[C@@H](CCCNC(=N)N)NC(=O)CNC(=O)CNC(=O)[C@@H](N)Cc1ccccc1)[C@@H](C)CC)C(N)=O) [Compound (i), H-Phe-Gly-Gly-D-Arg-Ile-Asp-Arg-Ile-NH2] | 0.21 | – | –
H-SSGCVLS-OH [Compound (e), H-Ser-Ser-Gly-Cys-Val-Leu-Ser-OH] | – | 10 | –
H-FGGRIDRI-NH2 [Compound (g), H-Phe-Gly-Gly-Arg-Ile-Asp-Arg-Ile-NH2] | 0.0035 | – | –
H-SMGLPCVVM-OH [Compound (d), H-Ser-Met-Gly-Leu-Pro-Cys-Val-Val-Met-OH] | – | 1.6 | 1.2
H-SMGLPCIFM-OH [Compound (f), H-Ser-Met-Gly-Leu-Pro-Cys-Ile-Phe-Met-OH] | – | 21 | –
H-AFGGRIDRIGAA-NH2 [Compound (h), H-Ala-Phe-Gly-Gly-Arg-Ile-Asp-Arg-Ile-Gly-Ala-Ala-NH2] | 0.0025 | – | –
